These results are taken from patent EP0730609B1 (SMITHKLINE BEECHAM CORPORATION, dated 2005).

The target in test [1] is T1, recombinant human IL4 (E. coli, non-glycosylated) (human, UniProt P05112 25-153).
T1 sequence (looked up): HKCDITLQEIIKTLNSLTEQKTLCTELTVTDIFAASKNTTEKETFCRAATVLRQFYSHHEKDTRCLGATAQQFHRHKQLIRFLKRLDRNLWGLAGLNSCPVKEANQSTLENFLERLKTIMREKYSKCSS
The test is described as follows: cell-based or functional assay.

The target in test [2] is T1, recombinant human IL4 (E. coli, …). The test is described as follows: titration microcalorimetry, 25°C, pH 7.4, 150 mM NaCl.
Test [3] has the same target. The test is described as follows: titration microcalorimetry, measured at 60°C and calculated for 25°C, pH 7.4, 150 mM NaCl.

B1: humanized 3B9 (IgG1) (antibody, V domains shown)
VH: QVTLRESGPALVKPTQTLTLTCTFSGFSLSTSGMGVSWIRQPPGKGLEWLAHIYWDDDKRYNPSLKSRLTISKDTSRNQVVLTMTNMDPVDTATYYCARRETVFYWYFDVWGRGTPVTVSS
VL: IVMTQSPDSLAVSLGERATINCKASQSVDYDGDSYMNWYQQKPGQPPKLLIYAASNLESGVPDRFSGSGSGTDFTLTISSLQAEDVAVYYCQQSNEDPPRFGGGTKVEIKR
For the molecule B1, in test [1], the “B cell (inhibition of IL4-stimulated B lymphocyte proliferation), IC50” value amounted to 0.047 nM; the “CD23 induction (inhibition of IL4-induced CD23 expression on B lymphocytes), IC50” value was found to be 0.333 nM; the “IgE synthesis (inhibition of IL4-driven IgE secretion), IC50” value came out at 0.054 nM; the “T cell (inhibition of IL4-stimulated T lymphocyte proliferation), IC50” value is 0.044 nM. For the same molecule, in test [2], the “-TΔS” value was found to be 8.2 kcal/mol IL4, the ΔG is -13.6 kcal/mol IL4 and the ΔH is -21.8 kcal/mol IL4. Further, in test [3], the Kd is 0.011 nM.

By Kd is commonly meant the equilibrium constant for the complex coming apart.
